This is an account of results in patent US7994133B2, “Isozyme-specific antagonists of protein kinase C” (The Board of Trustees of the Leland Stanford Junior …, priority 2003, dated 2011).

The test system of one experiment is CHO cells. Nature of the experiment: Real-time confocal imaging of PMA-induced εPKC translocation with mathematical modeling. It is filed as cell-based. To be noted: for time after PMA stimulation at which the enzyme was found at the cell periphery: YFP-εPKC D(86)A and CFP-εPKC Wt co-transfected in the same cell; for C3 / C5 / C1: constant of bi-exponential fit; for C1: level of εPKC in the cytosol at steady state; for k − 2: rate of detachment from the membrane; for k1 = C5: rate of εPKC opening in the cytosol. The method, then:
CHO cells were grown on glass coverslips, and serum-starved as described in Example 4. For each experiment, cells were transferred to a commercially available metal coverslip holder (Molecular Probes) in which the coverslip formed the bottom of a 1 ml bath. The media was then replaced with extracellular buffer (120 mM NaCl, 5 mM KCl, 1.5 mM CaCl2, 1.5 mM MgCl2, 20 mM HEPES and 30 mM glucose). Cells were stimulated by either PMA (100 nM), or with ATP (1 mM) in extracellular buffer. Fluorescence images of GFP-tagged constructs were obtained using the 488 nm excitation line of a laser scanning confocal microscope (Pascal, Zeiss) and emission was collected through a 505-550 nm band pass filter. Cells were imaged on the stage of an inverted microscope (Axiovert 100M) using a 40× Zeiss Plan-apo oil immersion objective with 1.2 numerical aperture (NA). For dual color imaging of CFP and YFP fusion proteins, a spinning disk Nipkow confocal microscope was used. Cells were viewed using an inverted Olympus IX70 microscope with a 40× oil immersion Olympus objective (1.35NA) and images were acquired with a CCD camera (Hamamatsu) and 2×2 pixel binning. CFP was excited with the 442 nm laser line of a helium-cadmium laser (Kimmon) whereas YFP was imaged with the 514 nm line of an argon ion laser (Melles-Griot). To selectively photobleach YFP labeled proteins in local regions of the cytoplasm for FRAP experiments, the 514 nm line of an Enterprise laser (Coherent) at maximal power (˜400 mW) was used. For these experiments, a 60× oil immersion objective was used (1.4NA). Under these conditions, and by placing an iris in the beam path, it was possible to bleach 80% of the YFP fluorescence in 500 ms in an area of the cytosol measuring approximately 35 um2. Real time confocal images were acquired every 10-15 seconds for 20 minutes for experiments utilizing PMA, and every 5 seconds for a total duration of 3 minutes in the case of cells stimulated with ATP. Reagents were added to the cell chamber after the fifth image in each time series. […] All images were acquired at room temperature. Images were exported as 12 or 16 bit files and changes in fluorescence intensity were measured using MetaMorph® data analysis software (Universal Imaging Corp.). To monitor the translocation of PKC, a small region of interest was selected in the cytosol of each cell and fluorescence intensity values graphed against time after subtraction of background values and normalized so that the initial fluorescence was 100%. Averages of 10-15 cells from three independent experiments were used. To determine statistical significance, a 1 tail type 2 T-test (Microsoft excel) was used.
Mathematical modeling was obtained from data of cells expressing similar levels of the different εPKC ΨεRACK mutants. Non-linear least squares curve fitting analysis was performed using the EViews software (QMS) and differential equation analysis was performed using Berkeley Madonna™. All other methods for this Example were performed as described, for example, in Examples 4 and 6.
Fluorescence time courses were analyzed by a non-linear regression analysis with single and biexponential equations (1 and 2) as previously done by Nalefski and Newton Nalefski, E. A. & Newton, A. C., Biochemistry 40:13216-13229 (2001)], where I(t) is the concentration of observed molecules in the cytosol at time (t), and C1-5 are constants. I(t)=C1+C2e^(−C3(t)) 1. I(t)=C1+C2e^(−C3(t))+C4e^(−C5(t)) 2. Residual error graphs obtained using single exponential equations (FIG. 8A) and using biexponential equations (FIG. 8B) for the D(86)A εPKC mutant translocation process is shown in FIGS. 8A-8D. […] This process can be described as follows:
The value of C1 corresponds to the level of εPKC in the cytosol at steady state. It was next determined whether the hypothesis that the values obtained for C1 and C3 of D(86)A and Wt εPKCs are statistically equivalent. […]

Another experiment deals with CHO and MCF-7 cells. Description: PKC translocation by Western blot, soluble to particulate fraction, after PMA. It is filed as cell-based. The settings on record: 10 minutes PMA, 100 nM in CHO, 10 nM in MCF-7. Here is the method:
To assess PKC distribution the different cell fractions were run on SDS PAGE, transferred for Western blot analysis and probed with anti-εPKC V5 antibodies. Lysates of overexpressed GFP-εPKC were diluted to approximately 0.2 μg/well. At this concentration endogenous εPKC was not detected. All other methods for this Example were performed as described, for example, in Example 4. It was also confirmed that the Wt and ΨεRACK εPKC mutants were sensitive to activation by phorbol ester and that they translocated from the soluble to the particulate fraction of the cell upon activation. Translocation of the εPKC mutants was determined using two different cell lines, MCF-7 and CHO. [CHO cells were stimulated for 10 minutes with 100 nM PMA (FIG. 6C). MCF-7 cells were stimulated with 10 nM PMA for 10 minutes (FIG. 6D, 6E), since stimulation of MCF-7 cells with higher doses of PMA caused a detachment of the cells]. After treatment with PMA, cells were fractionated into soluble and particulate fractions, and GFP-εPKC was detected and quantified by Western blot analysis using anti-εPKC. […] This is not due to PKC degradation; the total amount of εPKC was not changed upon activation. Therefore, GFP-εPKC ΨεRACK mutants were catalytically active and responded to activation by PMA by translocating from the soluble to the particulate fraction of the cell.

The mark [1] stands for this setting: rate of closing in the cytosol, assumed negligible.
Where [2] appears, read: rate of εPKC binding to the membrane, calculated with k-1 negligible.

Bounds are passed on as bounds.

B1: D(86)A: εPKC mutant wherein D at position 86 of ΨεRACK on εPKC is substituted with an A (protein)
chain: MVVFNGLLKIKICEAVSLKPTAWSLRHAVGPRPATFLLDPYIALNVDDSRIGQTATKQKTNSPAWHDEFVTDVCNGRKIELAVFHAAPIGYDDFVANCTIQFEELLQNGSRHFEDWIDLEPEGRVYVIIDLSGSSGEAPKDNEERVFRERMRPRKRQGAVRRRVHQVNGHKFMATYLRQPTYCSHCRDFIWGVIGKQGYQCQVCTCVVHKRCHELIITKCAGLKKQETPDQVGSQRFSVNMPHKFGIHNYKVPTFCDHCGSLLWGLLRQGLQCKVCKMNVHRRCETNVAPNCGVDARGIAKVLADLGVTPDKITNSGQRRKKLIAGAESPQPASGGSPSEEDRSKSAPTSPCDQEIKELENNIRKALSFDNRGEEHRAASSPDGQLMSPGENGEVRQGQAKRLGLDEFNFIKVLGKGSFGKVMLAELKGKDEVYAVKVLKKDVILQDDDVDCTMTEKRILALARKHPYLTQLYCCFQTKDRLFFVMEYVNGGDLMFQIQRSRKFDEPRSRFYAAEVTSALMFLHQHGVIYRDLKLDNILLDAEGHCKLADFGMCKEGILNGVTTTTFCGTPDYIAPEILQELEYGPSVDWWALGVLMYEMMAGQPPFEADNEDDLFESILHDDVLYPVWLSKEAVSILKAFMTKNPHKRLGCVASQNGEDAIKQHPFFKEIDWVLLEQKKIKPPFKPRIKTKRDVNNFDQDFTREEPVLTLVDEAIVKQINQEEFKGFSYFGEDLMP
As for B1, in the experiment with CHO cells (100 nM PMA, GFP fusion), the “rate of translocation (decrease of fluorescence in the cytoplasm)” value is listed as “faster rate” and the “time at which translocation to the cell periphery became apparent” value (“time at which translocation” below) is “within one minute”. Further, in the experiment on CHO cells (100 nM PMA), the “time after PMA stimulation at which the enzyme was found at the cell periphery” value is 1.5 min, the C3 is 0.016 ± 0.001, the C5 is 0.040 ± 0.007 and the C1 was found to be 30.59 ± 0.286. Besides, in the experiment on CHO cells (calculated with k-1 negligible), the “(k2 + k − 2) = C3” value is 0.016 ± 0.001, the “k − 2/(k2 + k − 2) = C1/100” value is 0.306 ± 0.002, the “k − 2” value is 0.005 ± 0.0004 and the “k1 = C5” value is reported as 0.040 ± 0.007. For the same molecule, the “k − 1” value in the experiment on CHO cells (setting [1]) is on record as around 0. Further, the k2 in the experiment on CHO cells (setting [2]) is reported as 0.011 ± 0.003. In addition, the “increase of εPKC in the particulate fraction compared with D(86)N or Wt” value in the experiment on CHO and MCF-7 cells is “greater increase”.

B2: D(86)N: εPKC mutant wherein D at position 86 of ΨεRACK in εPKC is substituted with an N (protein)
chain: MVVFNGLLKIKICEAVSLKPTAWSLRHAVGPRPATFLLDPYIALNVDDSRIGQTATKQKTNSPAWHDEFVTDVCNGRKIELAVFHNAPIGYDDFVANCTIQFEELLQNGSRHFEDWIDLEPEGRVYVIIDLSGSSGEAPKDNEERVFRERMRPRKRQGAVRRRVHQVNGHKFMATYLRQPTYCSHCRDFIWGVIGKQGYQCQVCTCVVHKRCHELIITKCAGLKKQETPDQVGSQRFSVNMPHKFGIHNYKVPTFCDHCGSLLWGLLRQGLQCKVCKMNVHRRCETNVAPNCGVDARGIAKVLADLGVTPDKITNSGQRRKKLIAGAESPQPASGGSPSEEDRSKSAPTSPCDQEIKELENNIRKALSFDNRGEEHRAASSPDGQLMSPGENGEVRQGQAKRLGLDEFNFIKVLGKGSFGKVMLAELKGKDEVYAVKVLKKDVILQDDDVDCTMTEKRILALARKHPYLTQLYCCFQTKDRLFFVMEYVNGGDLMFQIQRSRKFDEPRSRFYAAEVTSALMFLHQHGVIYRDLKLDNILLDAEGHCKLADFGMCKEGILNGVTTTTFCGTPDYIAPEILQELEYGPSVDWWALGVLMYEMMAGQPPFEADNEDDLFESILHDDVLYPVWLSKEAVSILKAFMTKNPHKRLGCVASQNGEDAIKQHPFFKEIDWVLLEQKKIKPPFKPRIKTKRDVNNFDQDFTREEPVLTLVDEAIVKQINQEEFKGFSYFGEDLMP
Regarding B2, in the experiment with CHO cells (100 nM PMA, GFP fusion), the “steady state level of fluorescence in the cytoplasm” value is recorded as “higher level” and the “time at which translocation” value came to 5 min. In the experiment with CHO cells (100 nM PMA), this molecule registered a C3 of 0.010 ± 0.0003, a C5 of 0.034 ± 0.004 and a C1 of 38.38 ± 0.254. Besides, the k2 in the experiment on CHO cells (rate of binding to the membrane, simulations using differential equations) is recorded as 0.01138. In addition, in the experiment on CHO cells (rate of closing, simulations using differential equations), the “k − 1” value is recorded as 0.005. Also, the “k − 2” value in the experiment with CHO cells (simulations using differential equations) is 0.0052. The same molecule had a k1 with CHO cells (rate of opening, simulations using differential equations, k1 = C5 not valid) of 0.0135.

B3: Wt: wild type εPKC, human construct (protein)
chain: MVVFNGLLKIKICEAVSLKPTAWSLRHAVGPRPATFLLDPYIALNVDDSRIGQTATKQKTNSPAWHDEFVTDVCNGRKIELAVFHDAPIGYDDFVANCTIQFEELLQNGSRHFEDWIDLEPEGRVYVIIDLSGSSGEAPKDNEERVFRERMRPRKRQGAVRRRVHQVNGHKFMATYLRQPTYCSHCRDFIWGVIGKQGYQCQVCTCVVHKRCHELIITKCAGLKKQETPDQVGSQRFSVNMPHKFGIHNYKVPTFCDHCGSLLWGLLRQGLQCKVCKMNVHRRCETNVAPNCGVDARGIAKVLADLGVTPDKITNSGQRRKKLIAGAESPQPASGGSPSEEDRSKSAPTSPCDQEIKELENNIRKALSFDNRGEEHRAASSPDGQLMSPGENGEVRQGQAKRLGLDEFNFIKVLGKGSFGKVMLAELKGKDEVYAVKVLKKDVILQDDDVDCTMTEKRILALARKHPYLTQLYCCFQTKDRLFFVMEYVNGGDLMFQIQRSRKFDEPRSRFYAAEVTSALMFLHQHGVIYRDLKLDNILLDAEGHCKLADFGMCKEGILNGVTTTTFCGTPDYIAPEILQELEYGPSVDWWALGVLMYEMMAGQPPFEADNEDDLFESILHDDVLYPVWLSKEAVSILKAFMTKNPHKRLGCVASQNGEDAIKQHPFFKEIDWVLLEQKKIKPPFKPRIKTKRDVNNFDQDFTREEPVLTLVDEAIVKQINQEEFKGFSYFGEDLMP
Turning to B3, in the experiment with CHO cells (100 nM PMA, GFP fusion), the “rate of translocation (decrease of fluorescence in the cytoplasm)” value is reported as “slower rate” and the “time at which translocation” value lay within 2 to 3 min. In the experiment with CHO cells (100 nM PMA), the “time after PMA stimulation at which the enzyme was found at the cell periphery” value is above 10 min, the C3 stood at 0.016 ± 0.004, the C5 is 0.009 ± 0.001 and the C1 worked out at 30.46 ± 0.991. In addition, in the experiment with CHO cells (calculated with k-1 negligible), the “(k2 + k − 2) = C3” value is recorded as 0.016 ± 0.004, the “k − 2/(k2 + k − 2) = C1/100” value is recorded as 0.305 ± 0.010, the “k − 2” value is 0.005 ± 0.0011 and the “k1 = C5” value is reported as 0.009 ± 0.001. Moreover, the “k − 1” value with CHO cells (setting [1]) is around 0. For the same molecule, the k2 in the experiment with CHO cells (setting [2]) was 0.011 ± 0.002.
